{"source": "patent US20130209454A1", "about": "(CALIFORNIA INSTITUTE OF TECHNOLOGY, published 2013)", "assay_in_all_cases": "cell-based or functional assay", "key": {"[1]": {"target": "HIV-1 Env of strain ZM249M.PL1 (HIV-1)"}, "[2]": {"target": "HIV-1 Env of strain Du156.12 (HIV-1)"}, "[3]": {"target": "HIV-1 Env of strain ZM109F.PB4 (HIV-1)"}, "[4]": {"target": "HIV-1 strain 3415.v1.c1 envelope (gp120) (HIV-1)"}, "[5]": {"target": "HIV-1 strain C2101.c01 envelope (gp120) (HIV-1)"}, "[6]": {"target": "HIV-1 strain WITO4160.33 envelope (gp120) (HIV-1)"}, "[7]": {"target": "HIV-1 strain ZM53M.PB12 envelope (gp120) (HIV-1)"}, "[8]": {"target": "HIV-1 strain 3016.v5.c45 envelope (gp120) (HIV-1)"}, "[9]": {"target": "HIV-1 strain 3817.v2.c59 envelope (gp120) (HIV-1)"}, "[10]": {"target": "HIV-1 strain T255-34 envelope (gp120) (HIV-1)"}, "[11]": {"target": "HIV-1 strain 3301.v1.c24 envelope (gp120) (HIV-1)"}, "[12]": {"target": "HIV-1 strain Ce0682_E4 envelope (gp120) (HIV-1)"}, "[13]": {"target": "HIV-1 strain CAAN5342.A2 envelope (gp120) (HIV-1)"}, "[14]": {"target": "HIV-1 strain Ce703010054_2A2 envelope (gp120) (HIV-1)"}, "[15]": {"target": "HIV-1 strain Ce1176_A3 envelope (gp120) (HIV-1)"}, "[16]": {"target": "HIV-1 strain Du156.12 envelope (gp120) (HIV-1)"}, "[17]": {"target": "HIV-1 strain 3103.v3.c10 envelope (gp120) (HIV-1)"}, "[18]": {"target": "HIV-1 strain CNE58 envelope (gp120) (HIV-1)"}, "[19]": {"target": "HIV-1 strain HIV-16845-2.22 envelope (gp120) (HIV-1)"}, "[20]": {"target": "HIV-1 strain 0815.v3.c3 envelope (gp120) (HIV-1)"}, "[21]": {"target": "HIV-1 strain 6545.v4.c1 envelope (gp120) (HIV-1)"}, "[22]": {"target": "HIV-1 strain T278-50 envelope (gp120) (HIV-1)"}, "[23]": {"target": "HIV-1 strain AC10.0.29 envelope (gp120) (HIV-1)"}, "[24]": {"target": "HIV-1 strain CNE53 envelope (gp120) (HIV-1)"}, "[25]": {"target": "HIV-1 strain 231965.c01 envelope (gp120) (HIV-1)"}, "[26]": {"target": "HIV-1 strain X1254_c3 envelope (gp120) (HIV-1)"}, "[27]": {"target": "HIV-1 strain RHPA4259.7 envelope (gp120) (HIV-1)"}, "[28]": {"target": "HIV-1 strain T257-31 envelope (gp120) (HIV-1)"}, "[29]": {"target": "HIV-1 strain T251-18 envelope (gp120) (HIV-1)"}, "[30]": {"target": "HIV-1 strain Du172.17 envelope (gp120) (HIV-1)"}, "[31]": {"target": "HIV-1 strain Q461.e2 envelope (gp120) (HIV-1)"}, "[32]": {"target": "HIV-1 strain CAP45.2.00.G3 envelope (gp120) (HIV-1)"}, "[33]": {"target": "HIV-1 strain ZM135M.PL10a envelope (gp120) (HIV-1)"}, "[34]": {"target": "HIV-1 strain QH0692.42 envelope (gp120) (HIV-1)"}, "[35]": {"target": "HIV-1 strain SC422661.8 envelope (gp120) (HIV-1)"}, "[36]": {"target": "HIV-1 strain PVO.4 envelope (gp120) (HIV-1)"}, "[37]": {"target": "HIV-1 strain ZM249M.PL1 envelope (gp120) (HIV-1)"}, "[38]": {"target": "HIV-1 strain 1054_07_TC4_1499 envelope (gp120) (HIV-1)"}, "[39]": {"target": "HIV-1 strain CNE30 envelope (gp120) (HIV-1)"}, "[40]": {"target": "HIV-1 strain P0402_c2_11 envelope (gp120) (HIV-1)"}, "[41]": {"target": "HIV-1 strain Ce0393_C3 envelope (gp120) (HIV-1)"}, "[42]": {"target": "HIV-1 strain Q842.d12 envelope (gp120) (HIV-1)"}}, "data": [{"binder": "NIH45-46 IgG (antibody, V domains shown) VH: QVRLSQSGGQMKKPGESMRLSCRASGYEFLNCPINWIRLAPGRRPEWMGWLKPRGGAVNYARKFQGRVTMTRDVYSDTAFLELRSLTSDDTAVYFCTRGKYCTARDYYNWDFEHWGRGAPVTVSS VL: EIVLTQSPATLSLSPGETAIISCRTSQSGSLAWYQQRPGQAPRLVIYSGSTRAAGIPDRFSGSRWGADYNLSISNLESGDFGVYYCQQYEFFGQGTKVQVDI", "note": "[NIH45-46 IgG, listing 1 of 2 here]", "values": [{"measurement": "neutralization IC50", "setting": "[1]", "result": 0.02, "unit": "µg/mL"}, {"measurement": "neutralization IC50", "setting": "[2]", "result": 0.01, "unit": "µg/mL"}, {"measurement": "neutralization IC50", "setting": "[3]", "result": 0.22, "unit": "µg/mL"}]}, {"binder": "NIH45-46 IgG (antibody, V domains shown) VH: QVRLSQSGGQMKKPGESMRLSCRASGYEFLNCPINWIRLAPGRRPEWMGWLKPRGGAVNYARKFQGRVTMTRDVYSDTAFLELRSLTSDDTAVYFCTRGKYCTARDYYNWDFEHWGRGAPVTVSS VL: EIVLTQSPATLSLSPGETAIISCRTSQSGSLAWYQQRPGQAPRLVIYSGSTRAAGIPDRFSGSRWGADYNLSISNLESGDFGVYYCQQYEFFGQGTKVQVDI", "note": "[NIH45-46 IgG, listing 2 of 2 here]", "values": [{"measurement": "neutralization IC80", "setting": "[4]", "result": 0.086, "unit": "µg/mL"}, {"measurement": "neutralization IC80", "setting": "[5]", "result": 31.4, "unit": "µg/mL"}, {"measurement": "neutralization IC80", "setting": "[6]", "result": 0.26, "unit": "µg/mL"}, {"measurement": "neutralization IC80", "setting": "[7]", "result": 0.61, "unit": "µg/mL"}, {"measurement": "neutralization IC80", "setting": "[8]", "result": "> 50", "unit": "µg/mL"}, {"measurement": "neutralization IC80", "setting": "[9]", "result": "> 50", "unit": "µg/mL"}, {"measurement": "neutralization IC80", "setting": "[10]", "result": 3.44, "unit": "µg/mL"}, {"measurement": "neutralization IC80", "setting": "[11]", "result": 0.033, "unit": "µg/mL"}, {"measurement": "neutralization IC80", "setting": "[12]", "result": 0.155, "unit": "µg/mL"}, {"measurement": "neutralization IC80", "setting": "[13]", "result": 0.4, "unit": "µg/mL"}, {"measurement": "neutralization IC80", "setting": "[14]", "result": 0.538, "unit": "µg/mL"}, {"measurement": "neutralization IC80", "setting": "[15]", "result": 3.17, "unit": "µg/mL"}, {"measurement": "neutralization IC80", "setting": "[16]", "result": 0.054, "unit": "µg/mL"}, {"measurement": "neutralization IC80", "setting": "[17]", "result": 6.15, "unit": "µg/mL"}, {"measurement": "neutralization IC80", "setting": "[18]", "result": 2.08, "unit": "µg/mL"}, {"measurement": "neutralization IC80", "setting": "[19]", "result": 22.6, "unit": "µg/mL"}, {"measurement": "neutralization IC80", "setting": "[20]", "result": 0.052, "unit": "µg/mL"}, {"measurement": "neutralization IC80", "setting": "[21]", "result": "> 50", "unit": "µg/mL"}, {"measurement": "neutralization IC80", "setting": "[22]", "result": "> 50", "unit": "µg/mL"}, {"measurement": "neutralization IC80", "setting": "[23]", "result": 1.93, "unit": "µg/mL"}, {"measurement": "neutralization IC80", "setting": "[24]", "result": 0.039, "unit": "µg/mL"}, {"measurement": "neutralization IC80", "setting": "[25]", "result": 0.126, "unit": "µg/mL"}, {"measurement": "neutralization IC80", "setting": "[26]", "result": 0.107, "unit": "µg/mL"}, {"measurement": "neutralization IC80", "setting": "[27]", "result": 0.047, "unit": "µg/mL"}, {"measurement": "neutralization IC80", "setting": "[28]", "result": 1.38, "unit": "µg/mL"}, {"measurement": "neutralization IC80", "setting": "[29]", "result": 3.68, "unit": "µg/mL"}, {"measurement": "neutralization IC80", "setting": "[30]", "result": "> 50", "unit": "µg/mL"}, {"measurement": "neutralization IC80", "setting": "[31]", "result": 0.291, "unit": "µg/mL"}, {"measurement": "neutralization IC80", "setting": "[32]", "result": "> 50", "unit": "µg/mL"}, {"measurement": "neutralization IC80", "setting": "[33]", "result": 2.79, "unit": "µg/mL"}, {"measurement": "neutralization IC80", "setting": "[34]", "result": 1.71, "unit": "µg/mL"}, {"measurement": "neutralization IC80", "setting": "[35]", "result": 0.13, "unit": "µg/mL"}, {"measurement": "neutralization IC80", "setting": "[36]", "result": 0.41, "unit": "µg/mL"}, {"measurement": "neutralization IC80", "setting": "[37]", "result": 0.053, "unit": "µg/mL"}, {"measurement": "neutralization IC80", "setting": "[38]", "result": 0.404, "unit": "µg/mL"}, {"measurement": "neutralization IC80", "setting": "[39]", "result": 1.07, "unit": "µg/mL"}, {"measurement": "neutralization IC80", "setting": "[40]", "result": 0.214, "unit": "µg/mL"}, {"measurement": "neutralization IC80", "setting": "[41]", "result": 0.93, "unit": "µg/mL"}, {"measurement": "neutralization IC80", "setting": "[42]", "result": 0.073, "unit": "µg/mL"}]}]}
